Assay results: US12565680B2, “Cancer neoantigens and their utilities in cancer vaccines and TCR-based cancer immunotherapy” (THE METHODIST HOSPITAL SYSTEM, priority 2018, dated 2026)

Columns and labels:
135TIL = assay: IFN-γ ELISA with bulk 135TIL (IVT-RNA electroporated 135EBV-B cells; peptide titration and truncation); format: cell-based, human; conditions: serially diluted peptides
Protocol: Due to low transfection efficiency of EBV-B cells, in vitro transcribed (IVT) RNA of 24 TMGs were generated and then electroporated them into 135EBV-B cells, followed by adding 135TIL cells for antigen recognition based on cytokine release assay.
96-well tissue culture plates were coated with phosphate-buffered saline (PBS, GenDEPOT) containing 50 μg/ml poly-L-lysine (Millipore Sigma) at 37° C. 10 min later, the plates were rinsed twice with PBS. Tumor cells or 293-APCs were seeded at 5×10^4/well in the 96-well plate and cultured at 37° C., 5% CO2 for at least 4 h. For plasmid transfection, 250 ng of plasmid DNA were transfected into 293-APCs per well with 0.5 μl of Lipofectamine 2000 (Thermo Fisher Scientific) according to the manufacturer's instructions and incubated at 37° C., in 5% CO2 overnight. For peptide presentation, synthesized peptides (GeneScript) were added to each well at different final concentrations from 10^2 to 10^−4 μM and incubated at 37° C., 5% CO2. The cells transfected with plasmids or pulsed with peptides were washed with TCM twice, and then cocultured with T cells (1×10^5/well). […]
96-well microplate (Greiner Bio-one) was coated with 50 μl of PBS containing anti-human IFN-γ (Thermo Fisher Scientific, primary antibody, 1 μg/ml) per well and incubated at 4° C. overnight. […] The plate was read at OD450 nm. The concentration of IFN-γ was calculated by standard reading. […]

T-cell clones of 135TIL = assay: IFN-γ ELISA with tumor-reactive T-cell clones of 135TIL; format: cell-based, human; conditions: peptide titration; 135-1C1 (ADIPOR2), 135-1E1 (LAGE1b)
Excerpt: Thus, immunogenic antigens can be generated from various sources or mechanisms [such as alternative ORFs, noncoding regions (3′ and 5′ UTRs, introns, noncoding RNA)]. […] All other tumor-reactive CD4^+ T-cell clones and CD8^+ T-cell clones recognized the mutation-derived neoantigens. […] To identify these two antigens recognized by these two CD4^+ T-cell clones, an Ii-fusion cDNA library derived from 135 mel tumor cells was constructed using experimental procedures. The Ii-fusion cDNA library pools (approximately 100 cDNA clones per pool) were transfected into 293IMDR3/DP4 or 293IMDR4/DP4 cells, followed by co-culturing with CD4^+ T-cell clones (135-1C1 or 135-1E1). After 2×10^5 cDNA clones, positive cDNA library pools that stimulate two T-cell clones, respectively, were identified based on IFN-γ release by ELISA (FIG. 6B). The positive pools were then transformed into Stbl3™ Escherichia coli, and single bacteria colonies were picked for plasmid DNA isolation. […] The 135-1E1 T cell-reactive cDNA clones encoded the product translated from an alternative reading frame of CTAG2 (LAGE1b) (FIG. 6C and FIG. 7A). […]
T-cell cloning and expansion were performed. […] On day 14, T-cell clones were harvested, counted, tested for tumor reactivity. […]

B1: … MEGAPAGPGGRTAACLSCTSRCLSRRPWKRSWSAGSCPGMPHRSPDQGRF (peptide)
chain: EALAFLMAQGAMLAAQERRVPRAAEVPGAQGQQGPRGREEAPRGVRMAVPLLRRMEGAPAGPGGRTAACLSCTSRCLSRRPWKRSWSAGSCPGMPHRSPDQGRF
notes: 109 aa peptide from frame-shifted reading frame (ORF2) of CTAG2 (LAGE1b)
- recognition of titrated peptides by 135TIL (IFN-γ ELISA) (135TIL): little or no activity
- recognition of antigen peptides by specific T-cell clones (T-cell clones of 135TIL): strongly recognized
